Laboratory results taken from paper doi:10.1101/2021.09.20.461017 (bioRxiv, 2021).

Molecular target: the molecule itself
Test: crystal structure

B1: ClpP from Bacillus subtilis (BsClpP) (enzyme)
chain: not shown
stoichiometry N: 14
